Results as given in PMC3072069.

Tests used:
CFP1 CXXC domain [1] = molecular target: T1, CFP1 CXXC domain (Homo sapiens, UniProt Q9P0U4 161-222); assay: EMSA
CFP1 CXXC domain [2] = molecular target: T1, CFP1 CXXC domain; assay: crystal structure
CFP1 CXXC domain [3] = molecular target: T1, CFP1 CXXC domain; assay: ITC
CFP1 CXXC R213A = CFP1 CXXC R213A (Homo sapiens, UniProt Q9P0U4 161-222, R213A); assay: ITC
CFP1 CXXC Y216A = CFP1 CXXC Y216A (Homo sapiens, UniProt Q9P0U4 161-222, Y216A); assay: ITC
CFP1 CXXC Y216A, sequence (Q9P0U4 161-222 Y216A): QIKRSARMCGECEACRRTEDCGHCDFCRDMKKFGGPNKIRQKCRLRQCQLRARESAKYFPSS

[4] = molecular target: CFP1 CXXC domain, longer construct (Homo sapiens, UniProt Q9P0U4 152-222); assay: ITC
CFP1 CXXC domain, longer construct, sequence (Q9P0U4 152-222): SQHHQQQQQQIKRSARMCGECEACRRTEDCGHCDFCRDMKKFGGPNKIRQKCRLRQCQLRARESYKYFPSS

T1 sequence (Q9P0U4 161-222): as the sequence (Q9P0U4 161-222 Y216A) above, with A56Y counted along it
CFP1 CXXC R213A, sequence (Q9P0U4 161-222 R213A): as the sequence (Q9P0U4 161-222 Y216A) above, with R53A, A56Y counted along it

| Binder | binding result (CFP1 CXXC domain [2]) | Kd (CFP1 CXXC domain [3]) | also measured |
| --- | --- | --- | --- |
| GC (GGCC), no CpG (dsDNA) DNA 1: GCCAGGCCTGGC DNA 2: GCCAGGCCTGGC |  |  | binding result (CFP1 CXXC domain [1]): no binding |
| ACGT (dsDNA) DNA 1: GCCAACGTTGGC DNA 2: GCCAACGTTGGC | binds |  |  |
| TCGT (dsDNA) DNA 1: GCCATCGTTGGC DNA 2: GCCAACGATGGC | binds |  |  |
| CCGG2 (dsDNA) DNA 1: GCCCCCGGGGGC DNA 2: GCCCCCGGGGGC |  | 4.4 ± 0.3 µM |  |
| TCGA (dsDNA) DNA 1: GCCATCGATGGC DNA 2: GCCATCGATGGC | binds |  |  |
| CCGG1 (dsDNA) DNA 1: GCCACCGGTGGC DNA 2: GCCACCGGTGGC |  | 3.5 ± 0.3 µM | Kd (CFP1 CXXC R213A): 179 ± 30 µM; Kd (CFP1 CXXC Y216A): 11 ± 2 µM; Kd [4]: 2700 ± 300 nM |
| GCGG (dsDNA) DNA 1: GCCAGCGGTGGC DNA 2: GCCACCGCTGGC |  | 3 ± 0.2 µM |  |
| ACGG (dsDNA) DNA 1: GCCAACGGTGGC DNA 2: GCCACCGTTGGC |  | 2.5 ± 0.2 µM |  |
